The numbers were not newly measured in PMC3600088, which cites them from elsewhere.

As usually defined, the Kd is the equilibrium constant for the complex coming apart.

For the series, the target named is Protective antigen (PA) (Bacillus anthracis) (UniProt P13423).

As to CMG2 (from UniProt P58335), the Kd was greater than 0.17 nM.
